Target: FLAG-tagged full-length BRCA2 (human, UniProt P51587 1-3418)
Experiment: pull-down

Chain of FLAG-tagged full-length BRCA2 (P51587 whole entry): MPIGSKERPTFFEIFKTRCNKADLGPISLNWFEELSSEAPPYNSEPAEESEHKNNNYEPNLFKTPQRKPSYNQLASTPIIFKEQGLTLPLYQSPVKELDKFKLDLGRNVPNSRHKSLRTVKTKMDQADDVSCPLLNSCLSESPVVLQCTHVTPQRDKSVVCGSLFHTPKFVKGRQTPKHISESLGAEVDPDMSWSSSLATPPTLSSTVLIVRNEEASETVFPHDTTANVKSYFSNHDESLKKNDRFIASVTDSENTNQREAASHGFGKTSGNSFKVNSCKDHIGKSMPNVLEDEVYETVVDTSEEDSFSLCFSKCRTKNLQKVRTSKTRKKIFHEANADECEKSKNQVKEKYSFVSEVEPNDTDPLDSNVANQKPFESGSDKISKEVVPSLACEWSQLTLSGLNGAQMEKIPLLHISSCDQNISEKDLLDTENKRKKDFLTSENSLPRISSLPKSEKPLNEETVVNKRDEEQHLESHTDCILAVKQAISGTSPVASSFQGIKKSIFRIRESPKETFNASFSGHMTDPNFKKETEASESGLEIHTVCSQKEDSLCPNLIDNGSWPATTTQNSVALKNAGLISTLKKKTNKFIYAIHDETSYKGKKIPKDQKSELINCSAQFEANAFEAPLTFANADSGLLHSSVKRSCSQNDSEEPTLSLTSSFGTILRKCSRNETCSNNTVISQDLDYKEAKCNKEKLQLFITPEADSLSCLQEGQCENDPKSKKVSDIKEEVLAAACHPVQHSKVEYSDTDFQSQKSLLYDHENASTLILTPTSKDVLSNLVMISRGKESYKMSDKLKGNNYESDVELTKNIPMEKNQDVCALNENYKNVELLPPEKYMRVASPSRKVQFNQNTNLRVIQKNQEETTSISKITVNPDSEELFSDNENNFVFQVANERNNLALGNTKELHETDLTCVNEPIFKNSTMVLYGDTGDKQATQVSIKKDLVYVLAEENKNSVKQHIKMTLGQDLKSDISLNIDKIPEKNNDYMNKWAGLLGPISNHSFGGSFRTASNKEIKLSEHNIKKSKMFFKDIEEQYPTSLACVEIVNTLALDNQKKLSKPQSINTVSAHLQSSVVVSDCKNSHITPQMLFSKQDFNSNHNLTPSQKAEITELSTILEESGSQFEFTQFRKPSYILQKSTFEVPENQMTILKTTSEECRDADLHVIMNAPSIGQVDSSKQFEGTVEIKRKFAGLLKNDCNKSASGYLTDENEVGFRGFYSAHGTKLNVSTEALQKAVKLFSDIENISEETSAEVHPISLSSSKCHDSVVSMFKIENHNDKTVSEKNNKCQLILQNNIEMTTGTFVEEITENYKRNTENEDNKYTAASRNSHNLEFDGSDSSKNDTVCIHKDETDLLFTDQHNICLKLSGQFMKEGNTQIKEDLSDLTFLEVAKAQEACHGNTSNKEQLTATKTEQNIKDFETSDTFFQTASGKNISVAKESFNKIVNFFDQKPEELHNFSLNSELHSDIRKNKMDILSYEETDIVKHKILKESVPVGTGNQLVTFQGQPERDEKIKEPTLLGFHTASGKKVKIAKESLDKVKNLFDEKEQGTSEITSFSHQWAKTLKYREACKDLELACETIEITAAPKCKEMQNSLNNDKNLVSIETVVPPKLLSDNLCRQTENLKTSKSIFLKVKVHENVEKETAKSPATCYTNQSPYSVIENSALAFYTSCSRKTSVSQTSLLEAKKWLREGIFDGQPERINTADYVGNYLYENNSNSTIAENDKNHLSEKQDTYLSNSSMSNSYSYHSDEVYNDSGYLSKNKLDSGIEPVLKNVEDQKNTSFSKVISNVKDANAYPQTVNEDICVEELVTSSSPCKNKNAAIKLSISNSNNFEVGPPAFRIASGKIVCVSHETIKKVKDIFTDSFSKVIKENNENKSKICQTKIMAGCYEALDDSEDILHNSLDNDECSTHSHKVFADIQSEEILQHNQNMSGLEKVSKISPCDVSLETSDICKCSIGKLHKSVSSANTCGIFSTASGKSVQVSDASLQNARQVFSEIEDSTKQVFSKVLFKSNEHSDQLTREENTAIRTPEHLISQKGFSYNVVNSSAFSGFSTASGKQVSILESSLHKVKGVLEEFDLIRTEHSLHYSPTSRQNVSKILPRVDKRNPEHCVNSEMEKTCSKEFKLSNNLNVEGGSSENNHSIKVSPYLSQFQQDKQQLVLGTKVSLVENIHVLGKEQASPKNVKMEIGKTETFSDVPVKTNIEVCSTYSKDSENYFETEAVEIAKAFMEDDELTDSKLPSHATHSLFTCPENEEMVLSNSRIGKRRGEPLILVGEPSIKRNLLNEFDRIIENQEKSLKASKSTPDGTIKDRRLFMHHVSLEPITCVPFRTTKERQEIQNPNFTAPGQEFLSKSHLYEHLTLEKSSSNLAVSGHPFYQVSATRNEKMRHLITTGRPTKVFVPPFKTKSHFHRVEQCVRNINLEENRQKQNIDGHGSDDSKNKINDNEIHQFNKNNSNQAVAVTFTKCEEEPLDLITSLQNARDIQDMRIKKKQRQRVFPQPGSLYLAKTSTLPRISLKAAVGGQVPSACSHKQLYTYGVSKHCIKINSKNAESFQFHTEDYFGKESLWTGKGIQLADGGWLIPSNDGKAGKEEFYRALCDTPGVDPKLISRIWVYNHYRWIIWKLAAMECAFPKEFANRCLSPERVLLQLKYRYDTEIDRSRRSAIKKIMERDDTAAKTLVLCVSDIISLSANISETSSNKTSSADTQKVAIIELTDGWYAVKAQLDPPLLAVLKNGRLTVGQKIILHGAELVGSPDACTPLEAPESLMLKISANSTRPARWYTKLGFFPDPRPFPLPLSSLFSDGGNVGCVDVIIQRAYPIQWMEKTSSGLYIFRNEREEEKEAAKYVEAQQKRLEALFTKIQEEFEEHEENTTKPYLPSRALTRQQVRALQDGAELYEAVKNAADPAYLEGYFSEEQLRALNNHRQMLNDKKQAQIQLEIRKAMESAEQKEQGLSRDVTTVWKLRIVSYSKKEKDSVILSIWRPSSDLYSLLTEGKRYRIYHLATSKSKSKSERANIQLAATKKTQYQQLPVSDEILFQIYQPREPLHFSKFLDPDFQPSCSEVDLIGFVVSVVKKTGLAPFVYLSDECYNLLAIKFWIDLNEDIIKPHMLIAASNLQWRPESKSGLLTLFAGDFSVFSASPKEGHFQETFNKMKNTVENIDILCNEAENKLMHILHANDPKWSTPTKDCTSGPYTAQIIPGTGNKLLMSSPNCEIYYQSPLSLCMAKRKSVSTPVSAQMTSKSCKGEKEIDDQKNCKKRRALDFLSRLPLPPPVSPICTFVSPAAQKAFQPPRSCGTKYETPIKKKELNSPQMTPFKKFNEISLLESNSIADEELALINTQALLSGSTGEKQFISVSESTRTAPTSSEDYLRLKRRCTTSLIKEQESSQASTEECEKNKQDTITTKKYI

- binding result: binds
B1: His-tagged full-length LIC2 (natural protein, human, UniProt O43237 1-492, looked up)
chain: MAPVGVEKKLLLGPNGPAVAAAGDLTSEEEEGQSLWSSILSEVSTRARSKLPSGKNILVFGEDGSGKTTLMTKLQGAEHGKKGRGLEYLYLSVHDEDRDDHTRCNVWILDGDLYHKGLLKFAVSAESLPETLVIFVADMSRPWTVMESLQKWASVLREHIDKMKIPPEKMRELERKFVKDFQDYMEPEEGCQGSPQRRGPLTSGSDEENVALPLGDNVLTHNLGIPVLVVCTKCDAVSVLEKEHDYRDEHLDFIQSHLRRFCLQYGAALIYTSVKEEKNLDLLYKYIVHKTYGFHFTTPALVVEKDAVFIPAGWDNEKKIAILHENFTTVKPEDAYEDFIVKPPVRKLVHDKELAAEDEQVFLMKQQSLLAKQPATPTRASESPARGPSGSPRTQGRGGPASVPSSSPGTSVKKPDPNIKNNAASEGVLASFFNSLLSKKTGSPGSPGAGGVQSTAKKSGQKTVLSNVQEELDRMTRKPDSMVTNSSTENEA
